Assay results from patent US20110059142A1, “ENCAPSULATION OF BIOLOGICALLY ACTIVE AGENTS” (priority 2008, published 2011).

Assay: In vivo evaluation of HIP-PBCA nanoparticle delivery of dalargin to the brain, intravenous
Settings: mouse, i.v., 20 minutes following injection, LC-MS-MS
Description: The ability of the HIP-PBCA nanoparticles to deliver their peptide load to the brain was determined in vivo in the mouse model. HIP-PBCA nanoparticles containing encapsulated dalargin using the HIP process were compared to HIP-PBCA nanoparticles that had had the peptide adsorbed onto the particle surface as reported by Kreuter et al. The nanoparticles were prepared for brain delivery via the intravenous route by coating their surface with polysorbate 80 surfactant. Briefly, the nanoparticles were incubated in PBS containing 1% w/v surfactant for 30 minutes prior to injection. The surfactant has been reported in the literature to indirectly target the nanoparticles to the brain by promoting adsorption of serum apolipoproteins onto the nanoparticle surface. This allows the particles to bind to the apolipoprotein receptor on the blood brain barrier and transcytose to reach the brain. The following formulations were compared: • 1. HIP-PBCA nanoparticles alone (5:1 HIP content) • 2. HIP-PBCA nanoparticles alone (10:1 HIP content) • 3. Dalargin in solution (2.0 mg/kg) • 4. HIP-PBCA nanoparticles with dalargin adsorbed onto the surface (2.0 mg/kg total dose used in formulation) • 5. […]
The mice were sacrificed at 20 minutes following injection, and the brains and blood samples collected and analysed for the presence of peptide by LC-MS-MS. […]

Substance: dalargin (YAGFLR; Humanised sequence of mus musculus and homo sapiens) [9: YAGFLR]
- Dalargin levels in the brain (detectability): detectable in the brain only when encapsulated within the particles using the HIP process
